# In the RNAGym collection of RNA variant scans (doi:10.1021/acssynbio.7b00057):
# B1: Pistol ribozyme (parent)
# chain: GGGUCGUUGUUCCAUAAUCGCGUGGAUAUGGCACGCAAGUUUCUACCGGGCACCGUAAAUGUCCGACUGGAGCCGUUCGGGCGGCUAUAAACAGACCUCAGGCCCGAAGCGUGGCGGCACCUGCCGCCGGUGGUAAAAAAGAUCGGAAGAGCACACGUCU
# Variants of: B1
# Assay: aptazyme ON/OFF ratio, guanine; higher = stronger switching; co-transcriptional cleavage with and without guanine
row,Variant,aptazyme ON/OFF ratio
1,GGGUCGAUUGACAAUAAUCGCGUGGAUAUGGCACGCAAGUUUCUACCGGGCACCGUAAAUGUCCGACUGGAGCCGUUCGGGCGGCUAUAAACAGACCUCAGGCCCGAAGCGUGGCGGCACCUGCCGCCGGUGGUAAAAAAGAUCGGAAGAGCACACGUCU [U7A G9U U10G U11A C13A],1.09
2,GGGUCGAUUGACGAUAAUCGCGUGGAUAUGGCACGCAAGUUUCUACCGGGCACCGUAAAUGUCCGACUGGAGCCGUUCGGGCGGCUAUAAACAGACCUCAGGCCCGAAGCGUGGCGGCACCUGCCGCCGGUGGUAAAAAAGAUCGGAAGAGCACACGUCU [U7A G9U U10G U11A C13G],1.08
3,GGGUCGAUUGACUAUAAUCGCGUGGAUAUGGCACGCAAGUUUCUACCGGGCACCGUAAAUGUCCGACUGGAGCCGUUCGGGCGGCUAUAAACAGACCUCAGGCCCGAAGCGUGGCGGCACCUGCCGCCGGUGGUAAAAAAGAUCGGAAGAGCACACGUCU [U7A G9U U10G U11A C13U],1.05
4,GGGUCGAUUGAGGAUAAUCGCGUGGAUAUGGCACGCAAGUUUCUACCGGGCACCGUAAAUGUCCGACUGGAGCCGUUCGGGCGGCUAUAAACAGACCUCAGGCCCGAAGCGUGGCGGCACCUGCCGCCGGUGGUAAAAAAGAUCGGAAGAGCACACGUCU [U7A G9U U10G U11A C12G C13G],1.21
5,GGGUCGAUUGAGUAUAAUCGCGUGGAUAUGGCACGCAAGUUUCUACCGGGCACCGUAAAUGUCCGACUGGAGCCGUUCGGGCGGCUAUAAACAGACCUCAGGCCCGAAGCGUGGCGGCACCUGCCGCCGGUGGUAAAAAAGAUCGGAAGAGCACACGUCU [U7A G9U U10G U11A C12G C13U],1.31
6,GGGUCGAUUGAGAAUAAUCGCGUGGAUAUGGCACGCAAGUUUCUACCGGGCACCGUAAAUGUCCGACUGGAGCCGUUCGGGCGGCUAUAAACAGACCUCAGGCCCGAAGCGUGGCGGCACCUGCCGCCGGUGGUAAAAAAGAUCGGAAGAGCACACGUCU [U7A G9U U10G U11A C12G C13A],1.41
7,GGGUCGAUUGAUAAUAAUCGCGUGGAUAUGGCACGCAAGUUUCUACCGGGCACCGUAAAUGUCCGACUGGAGCCGUUCGGGCGGCUAUAAACAGACCUCAGGCCCGAAGCGUGGCGGCACCUGCCGCCGGUGGUAAAAAAGAUCGGAAGAGCACACGUCU [U7A G9U U10G U11A C12U C13A],1.16
8,GGGUCGAUUGAUUAUAAUCGCGUGGAUAUGGCACGCAAGUUUCUACCGGGCACCGUAAAUGUCCGACUGGAGCCGUUCGGGCGGCUAUAAACAGACCUCAGGCCCGAAGCGUGGCGGCACCUGCCGCCGGUGGUAAAAAAGAUCGGAAGAGCACACGUCU [U7A G9U U10G U11A C12U C13U],1.26
9,GGGUCGAUUGAUGAUAAUCGCGUGGAUAUGGCACGCAAGUUUCUACCGGGCACCGUAAAUGUCCGACUGGAGCCGUUCGGGCGGCUAUAAACAGACCUCAGGCCCGAAGCGUGGCGGCACCUGCCGCCGGUGGUAAAAAAGAUCGGAAGAGCACACGUCU [U7A G9U U10G U11A C12U C13G],1.16
10,GGGUCGAUUGUUAAUAAUCGCGUGGAUAUGGCACGCAAGUUUCUACCGGGCACCGUAAAUGUCCGACUGGAGCCGUUCGGGCGGCUAUAAACAGACCUCAGGCCCGAAGCGUGGCGGCACCUGCCGCCGGUGGUAAAAAAGAUCGGAAGAGCACACGUCU [U7A G9U U10G C12U C13A],1.32
11,GGGUCGAUUGUUGAUAAUCGCGUGGAUAUGGCACGCAAGUUUCUACCGGGCACCGUAAAUGUCCGACUGGAGCCGUUCGGGCGGCUAUAAACAGACCUCAGGCCCGAAGCGUGGCGGCACCUGCCGCCGGUGGUAAAAAAGAUCGGAAGAGCACACGUCU [U7A G9U U10G C12U C13G],1.23
12,GGGUCGAUUGUUUAUAAUCGCGUGGAUAUGGCACGCAAGUUUCUACCGGGCACCGUAAAUGUCCGACUGGAGCCGUUCGGGCGGCUAUAAACAGACCUCAGGCCCGAAGCGUGGCGGCACCUGCCGCCGGUGGUAAAAAAGAUCGGAAGAGCACACGUCU [U7A G9U U10G C12U C13U],1.87
13,GGGUCGAUUGUCAAUAAUCGCGUGGAUAUGGCACGCAAGUUUCUACCGGGCACCGUAAAUGUCCGACUGGAGCCGUUCGGGCGGCUAUAAACAGACCUCAGGCCCGAAGCGUGGCGGCACCUGCCGCCGGUGGUAAAAAAGAUCGGAAGAGCACACGUCU [U7A G9U U10G C13A],1.33
14,GGGUCGAUUGUCUAUAAUCGCGUGGAUAUGGCACGCAAGUUUCUACCGGGCACCGUAAAUGUCCGACUGGAGCCGUUCGGGCGGCUAUAAACAGACCUCAGGCCCGAAGCGUGGCGGCACCUGCCGCCGGUGGUAAAAAAGAUCGGAAGAGCACACGUCU [U7A G9U U10G C13U],1.54
15,GGGUCGAUUGUCGAUAAUCGCGUGGAUAUGGCACGCAAGUUUCUACCGGGCACCGUAAAUGUCCGACUGGAGCCGUUCGGGCGGCUAUAAACAGACCUCAGGCCCGAAGCGUGGCGGCACCUGCCGCCGGUGGUAAAAAAGAUCGGAAGAGCACACGUCU [U7A G9U U10G C13G],1.14
16,GGGUCGAUUGAAGAUAAUCGCGUGGAUAUGGCACGCAAGUUUCUACCGGGCACCGUAAAUGUCCGACUGGAGCCGUUCGGGCGGCUAUAAACAGACCUCAGGCCCGAAGCGUGGCGGCACCUGCCGCCGGUGGUAAAAAAGAUCGGAAGAGCACACGUCU [U7A G9U U10G U11A C12A C13G],1.17
17,GGGUCGAUUGAAUAUAAUCGCGUGGAUAUGGCACGCAAGUUUCUACCGGGCACCGUAAAUGUCCGACUGGAGCCGUUCGGGCGGCUAUAAACAGACCUCAGGCCCGAAGCGUGGCGGCACCUGCCGCCGGUGGUAAAAAAGAUCGGAAGAGCACACGUCU [U7A G9U U10G U11A C12A C13U],1.18
18,GGGUCGAUUGAAAAUAAUCGCGUGGAUAUGGCACGCAAGUUUCUACCGGGCACCGUAAAUGUCCGACUGGAGCCGUUCGGGCGGCUAUAAACAGACCUCAGGCCCGAAGCGUGGCGGCACCUGCCGCCGGUGGUAAAAAAGAUCGGAAGAGCACACGUCU [U7A G9U U10G U11A C12A C13A],1.14
